Reference: patent US20080181899A1 (Regeneron, published 2008)

T1: hDII3-hFc (human delta-like ligand 3 fused to human Fc) (human, UniProt Q9NYJ7 27-490)
T1 construct: not shown: human Fc
T1 sequence: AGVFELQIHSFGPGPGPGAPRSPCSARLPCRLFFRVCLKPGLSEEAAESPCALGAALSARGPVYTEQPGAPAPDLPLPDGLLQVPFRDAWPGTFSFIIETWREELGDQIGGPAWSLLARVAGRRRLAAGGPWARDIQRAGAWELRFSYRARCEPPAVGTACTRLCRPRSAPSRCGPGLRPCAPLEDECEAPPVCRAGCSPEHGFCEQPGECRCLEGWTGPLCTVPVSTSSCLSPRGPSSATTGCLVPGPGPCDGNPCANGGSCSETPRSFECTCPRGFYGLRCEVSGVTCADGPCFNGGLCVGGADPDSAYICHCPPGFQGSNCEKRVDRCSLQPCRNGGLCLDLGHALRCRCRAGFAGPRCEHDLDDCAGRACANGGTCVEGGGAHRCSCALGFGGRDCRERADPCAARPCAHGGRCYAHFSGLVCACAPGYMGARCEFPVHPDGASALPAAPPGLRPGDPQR

T2: M. facscicularis DII4 monomer (M. facscicularis, UniProt Q9NR61 27-524 (human entry))
T2 construct: also called mfDII4
T2 chain: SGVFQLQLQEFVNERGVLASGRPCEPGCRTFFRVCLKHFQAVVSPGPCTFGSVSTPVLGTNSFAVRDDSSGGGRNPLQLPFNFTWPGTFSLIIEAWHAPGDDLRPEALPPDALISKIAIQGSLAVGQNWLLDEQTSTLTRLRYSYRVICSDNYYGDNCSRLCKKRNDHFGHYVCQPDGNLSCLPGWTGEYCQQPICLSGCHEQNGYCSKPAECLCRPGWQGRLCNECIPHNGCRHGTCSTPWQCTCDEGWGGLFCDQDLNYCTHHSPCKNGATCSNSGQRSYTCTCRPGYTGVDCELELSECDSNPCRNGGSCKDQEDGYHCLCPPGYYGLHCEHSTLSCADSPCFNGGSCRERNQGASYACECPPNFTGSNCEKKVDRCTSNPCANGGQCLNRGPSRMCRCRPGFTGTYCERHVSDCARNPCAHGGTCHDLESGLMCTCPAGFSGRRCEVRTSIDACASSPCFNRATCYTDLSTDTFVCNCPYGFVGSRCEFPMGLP


Key:
[1] = biological target: T1, hDII3-hFc (human delta-like ligand 3 …); assay: OCTET; antibody captured by biotin-anti-hK on streptavidin biosensor
Experimental: Briefly, strepavidin high binding FA biosensors (ForteBio, Inc., Menlo Park, Calif.) were first incubated with biotin-anti-hK at 5 μg/ml for 10 min at 30° C., to achieve saturation. […] Changes in the thickness of the biological layer after each incubation were measured.

hDII4-mFc = biological target: T3, hDII4-mFc (human, UniProt Q9NR61 27-524); assay: SPR BIACORE; antibody captured by anti-hFc; dimeric DII4-mFc analyte
T3 construct: also called dimeric DII4-mFc; not shown: mouse Fc
Experimental: (§1) Equilibrium dissociation constants (KD values) for antigen binding to the selected antibodies described above were determined by surface kinetics on a real-time biosensor surface plasmon resonance assay (BIACORE™ 2000). The antibody was captured on a goat anti-mouse IgG polyclonal antibody surface created through direct chemical coupling to a BIACORE™ chip to form a captured antibody surface. […] Kinetic analysis was performed to calculate KD, dissociation rate constants, and half-life of antigen/antibody complex dissociation (Table 1). […] Antibodies were presented by goat anti-hFc polyclonal antibody reagent (Jackson Immuno Research Lab) immobilized on BIACORE™ chip, and exposed to either dimeric DII4-mFc or monomeric DII4 protein (Table 2).

[2] = biological target: T4, monomeric hDII4 (human delta-like ligand 4) (human, UniProt Q9NR61 27-524); assay: SPR BIACORE; antibody captured by anti-hFc; monomeric DII4 analyte
T4 construct: also called monomeric DII4 protein
Experimental: as §1

dimeric hDII4-hFc [3] = biological target: T5, dimeric hDII4-hFc (human, UniProt Q9NR61 27-524, biotin in Example 3 (biotin-DII4-hFc), site not stated); assay: cell-based or functional assay
[4] = biological target: T4, monomeric hDII4 (human delta-like …); assay: SPR BIACORE; antibody captured by anti-hFc; monomer analyte
Experimental: (§2) The binding affinities of selected purified antibodies to hDII4, M. facscicularis DII4 (mfDII4, SEQ IN NO:956), and M. mulatta DII4 (mmDII4, SEQ ID NO:957) monomers were determined using a BIACORE™ 2000 & 3000.

[5] = biological target: T2, M. facscicularis DII4 monomer; assay: as above
Experimental: as §2

[6] = biological target: hDII4 on cells (DII4 expressing HUVEC; engineered C6 rat glioma cells expressing hDII4) (human, UniProt Q9NR61 27-685); assay: cell-based or functional assay
dimeric hDII4-hFc [7] = biological target: T5, dimeric hDII4-hFc; assay: competition ELISA; antibody titrated against 25 pM biotin-DII4-hFc; free biotin-DII4-hFc on Notch-hFc plate
Experimental: The ability of the antibodies to block DII4 binding to Notch was evaluated with an ELISA-based immunoassay. Briefly, Notch-hFc recombinant protein was coated on a 96-well plate in PBS buffer overnight at 4° C. at […], and the nonspecific binding sites were blocked with BSA.

[8] = biological target: T1, hDII3-hFc (human delta-like ligand 3 …); assay: SPR BIACORE; ligand amine-coupled to CM-5 chip; antibody injected
Source text: An alternative BIACORE™ format was used to assess cross-reactivity between anti-hDII4 antibody and either hDII1-hFc or hDII3-hFc.

Chain of hDII4 on cells (DII4 expressing HUVEC; engineered C6 rat glioma cells expressing hDII4) (Q9NR61 27-685 limits assumed, stated change not applied): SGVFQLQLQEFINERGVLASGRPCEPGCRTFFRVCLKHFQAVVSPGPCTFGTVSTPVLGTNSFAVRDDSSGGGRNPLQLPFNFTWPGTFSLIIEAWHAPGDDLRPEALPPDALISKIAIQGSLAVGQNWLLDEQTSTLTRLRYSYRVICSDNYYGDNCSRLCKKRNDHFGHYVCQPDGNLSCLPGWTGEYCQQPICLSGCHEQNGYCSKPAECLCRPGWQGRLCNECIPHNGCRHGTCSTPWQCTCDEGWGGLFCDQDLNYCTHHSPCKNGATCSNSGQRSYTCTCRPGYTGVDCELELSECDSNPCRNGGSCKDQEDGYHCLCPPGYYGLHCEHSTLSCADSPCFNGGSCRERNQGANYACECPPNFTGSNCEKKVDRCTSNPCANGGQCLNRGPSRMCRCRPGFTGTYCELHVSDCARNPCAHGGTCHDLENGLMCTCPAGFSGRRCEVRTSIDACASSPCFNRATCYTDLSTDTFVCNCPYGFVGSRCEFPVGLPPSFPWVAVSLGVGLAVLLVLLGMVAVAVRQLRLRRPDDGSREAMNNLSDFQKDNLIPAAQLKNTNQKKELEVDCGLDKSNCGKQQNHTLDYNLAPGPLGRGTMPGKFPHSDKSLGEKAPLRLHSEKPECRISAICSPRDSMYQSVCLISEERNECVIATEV
T3 sequence (Q9NR61 27-524 limits assumed): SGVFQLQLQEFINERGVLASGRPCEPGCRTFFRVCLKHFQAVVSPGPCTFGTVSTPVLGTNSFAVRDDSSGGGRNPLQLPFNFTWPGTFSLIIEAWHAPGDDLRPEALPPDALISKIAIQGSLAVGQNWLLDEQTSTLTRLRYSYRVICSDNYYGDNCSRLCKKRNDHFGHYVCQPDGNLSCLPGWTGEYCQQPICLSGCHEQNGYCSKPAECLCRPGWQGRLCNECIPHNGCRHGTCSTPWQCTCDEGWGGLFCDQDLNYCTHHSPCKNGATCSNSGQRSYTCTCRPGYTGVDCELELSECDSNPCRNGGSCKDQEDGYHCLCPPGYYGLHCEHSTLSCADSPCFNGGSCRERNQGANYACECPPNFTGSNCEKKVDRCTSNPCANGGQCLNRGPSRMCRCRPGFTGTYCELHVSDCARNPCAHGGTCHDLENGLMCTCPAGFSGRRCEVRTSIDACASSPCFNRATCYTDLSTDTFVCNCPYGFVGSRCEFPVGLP

Binder	binding result [1]	Kd (hDII4-mFc) [nM]	Kd [2] [nM]	HUVEC proliferation assay IC50 (dimeric hDII4-hFc [3]) [nM]	Kd [4] [nM]	koff [4] [s⁻¹]	kon [4] [M⁻¹ s⁻¹]	Kd [5] [nM]	koff [5] [s⁻¹]	kon [5] [M⁻¹ s⁻¹]	EphrinB2 Expression IC50 [6] [nM]	Hes1 Expression IC50 [6] [nM]	IC50 (dimeric hDII4-hFc [7]) [nM]	binding result [8]
318518-01A10-D8 (antibody, human IgG1, HCVR 429 with hIgG1 constant region 950; also called REGN281; 318518-1A10-D8) heavy: not shown VL: EIVMTQSPATLSLSPGERATLSCRASQSVSSYLAWYQQKPGQAPRLLIYDASNRATGIPARFSGSGSGTDFTLTISSLEPEDFAVYYCQHRSNWPPTFGGGTKVEIK	no binding (tested: 200 nM)	0.018	0.399	0.096	0.148	2.3e-05	156000	0.307	2.04e-05	66400	0.305	0.329	0.05	–
REGN422 (antibody, human IgG4 S228P, HCVR 901 with modified hIgG4 constant region 952) heavy: not shown VL: EIVLTQSPATLSLSPGERATLSCRASQSVSSYLAWYQQKPGQAPRLLIYDASNRATGIPARFSGSGSGTDFTLTISSLEPEDFAVYYCQHRSNWPPTFGGGTKVEIK	–	–	–	–	0.144	2.36e-05	164000	0.36	2.88e-05	80100	–	–	–	no binding (tested: 300 µg/ml)
REGN421 (antibody, human IgG1, HCVR 901 with hIgG1 constant region 950) heavy: not shown VL: EIVLTQSPATLSLSPGERATLSCRASQSVSSYLAWYQQKPGQAPRLLIYDASNRATGIPARFSGSGSGTDFTLTISSLEPEDFAVYYCQHRSNWPPTFGGGTKVEIK	–	–	–	–	0.133	2.17e-05	163000	0.278	2.02e-05	72800	–	–	–	no binding (tested: 300 µg/ml)
